The record followed here is patent publication US20150018285A1 (CARMEL HAIFA UNIVERSITY ECONOMIC, published 2015).

For experiment [1], the target named is T1, B-cell CLL/lymphoma 2 (Bcl-2) (human, UniProt P10415 1-239).
T1 construct: Used as endogenous Bcl-2 (HeLa, BT-549) or from a transfected Bcl-2 construct; also called Bch 2; endogenous Bcl-2
The experiment can be described thus: immunoprecipitation of transfected HeLa lysates with anti-Bcl-2 antibody, Western blot with anti-ARTS (FIG. 11A).

Experiment [2] addresses T2, X-linked inhibitor of apoptosis protein (XIAP) (human, UniProt P98170 1-497).
T2 construct: Endogenous XIAP in cell lysates; also called IAP3; BIRC
Put plainly: IP of the mitochondrial fraction with anti-Bcl-2 antibody, Western blot (FIG. 4E). How it is done:
Mitochondrial fraction was immunoprecipitated using anti-Bcl-2 antibody. The precipitate was analyzed by Western blotting.
Background: Immunoblotting shows a protein as a band on a membrane.

The target of experiment [3] is T3, B-cell lymphoma-extra large (Bcl-xL) (human, UniProt Q07817 1-233).
T3 construct: also called Bch xL
Put plainly: IP with monoclonal anti-ARTS antibody from HeLa wt lysate, Western blot (FIG. 9); binding still seen after 24 h of ABT-263.

Experiment [4] concerns the target T2, X-linked inhibitor of apoptosis protein …. The experiment can be described thus: IP with anti-ARTS monoclonal antibody from COS-7 cells transfected with the 6-Myc-ARTS construct; the partner is endogenous in COS-7 (FIG. 4B). How it is done:
FIG. 4B. […] The precipitate was analyzed by Western blotting.

T2 sequence (P98170 whole entry): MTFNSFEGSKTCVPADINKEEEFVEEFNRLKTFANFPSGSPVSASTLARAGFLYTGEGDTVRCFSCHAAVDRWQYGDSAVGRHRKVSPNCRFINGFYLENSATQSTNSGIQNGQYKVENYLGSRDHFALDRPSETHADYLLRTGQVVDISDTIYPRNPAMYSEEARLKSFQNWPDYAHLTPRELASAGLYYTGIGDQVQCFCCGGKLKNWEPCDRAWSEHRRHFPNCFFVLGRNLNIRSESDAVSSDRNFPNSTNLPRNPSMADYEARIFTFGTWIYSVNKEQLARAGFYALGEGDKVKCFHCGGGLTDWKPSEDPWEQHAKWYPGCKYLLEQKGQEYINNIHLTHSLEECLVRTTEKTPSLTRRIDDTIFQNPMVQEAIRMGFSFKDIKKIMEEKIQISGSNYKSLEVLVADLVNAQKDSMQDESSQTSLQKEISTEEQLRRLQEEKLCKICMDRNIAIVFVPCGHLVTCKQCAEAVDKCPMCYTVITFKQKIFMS
T3 sequence (Q07817 whole entry G70A): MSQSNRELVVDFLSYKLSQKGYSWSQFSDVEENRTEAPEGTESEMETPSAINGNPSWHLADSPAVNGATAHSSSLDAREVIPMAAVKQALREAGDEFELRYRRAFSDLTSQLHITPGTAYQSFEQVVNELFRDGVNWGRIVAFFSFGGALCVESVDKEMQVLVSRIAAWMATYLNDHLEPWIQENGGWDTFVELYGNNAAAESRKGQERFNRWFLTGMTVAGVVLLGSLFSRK
T1 sequence (P10415 whole entry): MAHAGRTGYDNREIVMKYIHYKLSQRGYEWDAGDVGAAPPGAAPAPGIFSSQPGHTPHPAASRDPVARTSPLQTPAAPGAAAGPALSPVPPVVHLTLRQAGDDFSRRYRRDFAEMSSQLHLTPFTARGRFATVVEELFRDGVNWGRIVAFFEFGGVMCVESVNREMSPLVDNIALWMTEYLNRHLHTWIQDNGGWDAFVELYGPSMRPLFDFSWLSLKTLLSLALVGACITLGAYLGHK

B1: 128 amino acids N' terminus deletion mutated ARTS (other)
chain: MVAGESGLGKSTLVNSLFLTDLYRDRKLLGAEERIMQTVEITKHAVDIEEKGVRLRLTIVDTPGFGDAVNNTECWKPVAEYIDQQFEQYFRDESGLNRKNIQDNRVHCCLYFISPFGHGYGPSLRLLAPPGAVKGTGQEHQGQGCH
On to B1, for which, in experiment [1], the binding result is listed as “no binding”.

B2: Apoptosis Related Protein in the TGF-beta Signaling Pathway (ARTS) (other)
chain: MIKRFLEDTTDDGELSKFVKDFSGNASCHPPEAKTWASRPQVPEPRPQAPDLYDDDLEFRPPSRPQSSDNQQYFCAPAPLSPSARPRSPWGKLDPYDSSEDDKEYVGFATLPNQVHRKSVKKGFDFTLMVAGESGLGKSTLVNSLFLTDLYRDRKLLGAEERIMQTVEITKHAVDIEEKGVRLRLTIVDTPGFGDAVNNTECWKPVAEYIDQQFEQYFRDESGLNRKNIQDNRVHCCLYFISPFGHGYGPSLRLLAPPGAVKGTGQEHQGQGCH
notes: also called FL ARTS; full length ARTS
Regarding B2, the binding result in experiment [2] and in experiment [3] was “binds” throughout.

B3: 6-Myc-ARTS (other)
chain: MIKRFLEDTTDDGELSKFVKDFSGNASCHPPEAKTWASRPQVPEPRPQAPDLYDDDLEFRPPSRPQSSDNQQYFCAPAPLSPSARPRSPWGKLDPYDSSEDDKEYVGFATLPNQVHRKSVKKGFDFTLMVAGESGLGKSTLVNSLFLTDLYRDRKLLGAEERIMQTVEITKHAVDIEEKGVRLRLTIVDTPGFGDAVNNTECWKPVAEYIDQQFEQYFRDESGLNRKNIQDNRVHCCLYFISPFGHGYGPSLRLLAPPGAVKGTGQEHQGQGCH
notes: Expressed by transient transfection in COS-7 cells; also called pSC2-6Myc ARTS; not shown: 6xMyc tag of pSC2-6Myc
With B3, in experiment [4], the binding result was “binds”.
